# US20090042785A1 (Pieris, published 2009)
# B1: hNGAL mutein S67.2-F03 (designed binder)
# chain: QDSTSDLIPAPPLSKVPLQQNFQDNQFHGKWYVVGLAGNRILRDDQHPMNMYATIYELKEDKSYNVTSVIFPHKKCEYTIATFVPGSQPGEFTLGNIKSYGDKTSYLVRVVSTNYNQHAMVFFKLVEDNAEFFAITIYGRTKELASELKENFIRFSKSLGLPENHIVFPVPIDQCIDGSAWSHPQF
# B2: hNGAL mutein S106.3-O19 (designed binder)
# chain: QDSTSDLIPAPPLSKVPLQQNFQDNQFHGKWYVVGLAGNRILRDDQHPMNMYATIYELKEDKSYNVTSVIFPHKKCEHTIATFVPGSQPGEFTLGNIKSYGDKTSYLVRVVSTDYNQHAMVFFELVEDNAGFFAITIYGRTKELASELKENFIRFSKSLGLPENHIVFPVPIDQCIDGSAWSHPQF
# B3: hNGAL mutein S106.3-K20 (designed binder)
# chain: QDSTSDLIPAPPLSKVPLQQNFQDNQFHGKWYVVGLAGNRILRDDQHPMNMYATIYELKEDKSYNVTSVIFPHKKCEYTIATFVPGSQPGEFTLGNIKSYGDKTSYLVRVVSTNYNQHAVVFFQLVEDNAGFFAITIYGRTKELASELKENFIRFSKSLGLPENHIVFPVPIDQCIDGSAWSHPQF
# B4: hNGAL mutein S109.5-L23 (designed binder)
# chain: QDSTSDLIPAPPLSKVPLQQNFQDNQFHGKWYVVGLAGNRILRDDQHPMNMYATIYELKEDKSYDVTSVIFPHKKCEYTTATFVPGSQPGEFTLGNIKSYGGKTSYLVRVVSTNYNQHATVFFKLAGDNAEFFAITIYGRTKELASELKENFIRFSKSLGLPENHIVFPVPIDQCIDGSAWSHPQF
# B5: hNGAL mutein S109.5-L04 (designed binder)
# chain: QDSTSDLIPAPPLSKVPLQQNFQDNQFHGKWYVVGLAGNRILRDDRHPMNMYATIYELKEDKSYNVTSVIFPHKKCEYTIATFVPGSQPGEFTLGNIKSYGDKTSYLVRVVSTNYNQHATVFFKLAEDNAEFFAITIYGRTKELASELKENFIRFSKSLGLPENHIVFPVPIDQCIDGSAWSHPQF
# B6: hNGAL mutein S94.2-F05 (designed binder)
# chain: QDSTSDLIPAPPLSKVPLQQNFQDNQFHGKWYVVGLAGNRILRDDQHPMNMYATIYELKEDKSYNVTSVIFPHKKCEYTIATFVPGSQPGEFTLGNIKSYGDKTSYLVRVVSTNYNQYAMVFFKLAEDNAEFFAVTIYGRTKELASELKENFIRFSKSLGLPENHIVFPVPIDQCIDGSAWSHPQF
# B7: hNGAL mutein S109.4-A15 (designed binder)
# chain: QDSTSDLIPAPPLSKVPLQQNFQDNQFHGKWYVVGLAGNRILRDDQHPMDMYATIYELKEDKSYNVTSVIFPHKKCEYTIATFVPGSQPGEFTLGNIKSYGDKTSYLVRVVSTNYNQHATVFFKLAEDNAEFFAITIYGRTKELASELKENFIRFSKSLGLPENHIVFPVPIDQCIDGSAWSHPQF
# B8: hNGAL mutein S106.1-N15 (designed binder)
# chain: QDSTSDLIPAPPLSKVPLQQNFQDNQFHGKWYVLGLAGNRILRDDQHPMNMYATIYELKEDKSYNVTSVIFPHKKCEYTIATFVPGSQPGEFTLGNIKSYGDKTSYLVRVVSTNYNQHAMVFFKLAEDNAEFFAITIYGRTKELASELKENFIRFSKSLGLPENHIVFPVPIDQCIDGSAWSHPQF
# B9: hNGAL mutein S107.4-C16 (designed binder)
# chain: QDSTSDLIPAPPLSKVPLQQNFQDNQFHGKWYVVGLAGNRILRDDQHPMNMYATIYELKEDKSYNVTSVIFPHKKCEYTIATFVPGSQPGEFTLGNIKSYGDKTSYLVRVVSTNYNQHAMVFFELVEDNAGFFAITIYGRTKELASELKENFIRFSKSLGLPENHIVFPVPIDQCIDGSAWSHPQF
# B10: hNGAL mutein S109.6-J11 (designed binder)
# chain: QDSTSDLIPAPPLSKVPLQQNFQDNQFHGKWYVVGLAGNRILRDDQHPMNMYATIYELKEDKSYNVTSVIFPHKKCEYTFATFVPGSQPGEFTLGNIKSYGDKTSYLVRVVSTNYNQHATVFFKLAEDNAEFFAVTIYGRTKELASELKENFIRFSKSLGLPENHIVFPVPIDQCIDGSAWSHPQF
# B11: hNGAL mutein S67.3-C21 (designed binder)
# chain: QDSTSDLIPAPPLSKVPLQQNFQDNQFHGKWYVVGLAGNYIWRNDRYPMQMYATIYELKEDKSYNVTSVIFDTKKCEYPIATFVPGSQPGEFTLGNIKSYRMDTSYLVRVVSTNYNQHAMVFFKQVNHNTEHFAITIYGRTKELASELKENFIRFSKSLGLPENHIVFPVPIDQCIDGSAWSHPQF
# B12: S140.4-O10_A145C (designed binder)
# chain: QDSTSDLIPAPPLSKVPLQQNFQDNQFHGKWYVVGLAGNRILRDDQHPMNMYATIYELKEDKSYNVTSVISSHKKCEYTIATFVPGSQPGEFTLGNIKSYGDKTSYLVRVVSTDYNQYAVVFFKLAEDNAEFFAITIYGRTKELCSELKENFIRFSKSLGLPENHIVFPVPIDQCIDG
# notes: Produced from phNGAL15 without the T7 tag
# B13: S140.4-O10_E143C (designed binder)
# chain: QDSTSDLIPAPPLSKVPLQQNFQDNQFHGKWYVVGLAGNRILRDDQHPMNMYATIYELKEDKSYNVTSVISSHKKCEYTIATFVPGSQPGEFTLGNIKSYGDKTSYLVRVVSTDYNQYAVVFFKLAEDNAEFFAITIYGRTKCLASELKENFIRFSKSLGLPENHIVFPVPIDQCIDG
# notes: as for B12
# B14: S140.4-O10_Q88C (designed binder)
# chain: QDSTSDLIPAPPLSKVPLQQNFQDNQFHGKWYVVGLAGNRILRDDQHPMNMYATIYELKEDKSYNVTSVISSHKKCEYTIATFVPGSCPGEFTLGNIKSYGDKTSYLVRVVSTDYNQYAVVFFKLAEDNAEFFAITIYGRTKELASELKENFIRFSKSLGLPENHIVFPVPIDQCIDG
# notes: as for B12
# B15: S140.4-O10_N116 (designed binder)
# chain: QDSTSDLIPAPPLSKVPLQQNFQDNQFHGKWYVVGLAGNRILRDDQHPMNMYATIYELKEDKSYNVTSVISSHKKCEYTIATFVPGSQPGEFTLGNIKSYGDKTSYLVRVVSTDYCQYAVVFFKLAEDNAEFFAITIYGRTKELASELKENFIRFSKSLGLPENHIVFPVPIDQCIDG
# notes: Produced from phNGAL15 without the T7 tag; also called O10_N116C
# B16: S140.4-O10_S158C (designed binder)
# chain: QDSTSDLIPAPPLSKVPLQQNFQDNQFHGKWYVVGLAGNRILRDDQHPMNMYATIYELKEDKSYNVTSVISSHKKCEYTIATFVPGSQPGEFTLGNIKSYGDKTSYLVRVVSTDYNQYAVVFFKLAEDNAEFFAITIYGRTKELASELKENFIRFSKCLGLPENHIVFPVPIDQCIDG
# notes: as for B12
# B17: S140.4-O10_T141C (designed binder)
# chain: QDSTSDLIPAPPLSKVPLQQNFQDNQFHGKWYVVGLAGNRILRDDQHPMNMYATIYELKEDKSYNVTSVISSHKKCEYTIATFVPGSQPGEFTLGNIKSYGDKTSYLVRVVSTDYNQYAVVFFKLAEDNAEFFAITIYGRCKELASELKENFIRFSKSLGLPENHIVFPVPIDQCIDG
# notes: as for B12
# B18: S140.4-O10_N21C (designed binder)
# chain: QDSTSDLIPAPPLSKVPLQQCFQDNQFHGKWYVVGLAGNRILRDDQHPMNMYATIYELKEDKSYNVTSVISSHKKCEYTIATFVPGSQPGEFTLGNIKSYGDKTSYLVRVVSTDYNQYAVVFFKLAEDNAEFFAITIYGRTKELASELKENFIRFSKSLGLPENHIVFPVPIDQCIDG
# notes: as for B12
# B19: S140.4-O10_S146C (designed binder)
# chain: QDSTSDLIPAPPLSKVPLQQNFQDNQFHGKWYVVGLAGNRILRDDQHPMNMYATIYELKEDKSYNVTSVISSHKKCEYTIATFVPGSQPGEFTLGNIKSYGDKTSYLVRVVSTDYNQYAVVFFKLAEDNAEFFAITIYGRTKELACELKENFIRFSKSLGLPENHIVFPVPIDQCIDG
# notes: as for B12
# B20: S140.4-O10_E60C (designed binder)
# chain: QDSTSDLIPAPPLSKVPLQQNFQDNQFHGKWYVVGLAGNRILRDDQHPMNMYATIYELKCDKSYNVTSVISSHKKCEYTIATFVPGSQPGEFTLGNIKSYGDKTSYLVRVVSTDYNQYAVVFFKLAEDNAEFFAITIYGRTKELASELKENFIRFSKSLGLPENHIVFPVPIDQCIDG
# notes: as for B12
# B21: S140.4-O10_S14C (designed binder)
# chain: QDSTSDLIPAPPLCKVPLQQNFQDNQFHGKWYVVGLAGNRILRDDQHPMNMYATIYELKEDKSYNVTSVISSHKKCEYTIATFVPGSQPGEFTLGNIKSYGDKTSYLVRVVSTDYNQYAVVFFKLAEDNAEFFAITIYGRTKELASELKENFIRFSKSLGLPENHIVFPVPIDQCIDG
# notes: as for B12
# B22: S140.4-O10_V84C (designed binder)
# chain: QDSTSDLIPAPPLSKVPLQQNFQDNQFHGKWYVVGLAGNRILRDDQHPMNMYATIYELKEDKSYNVTSVISSHKKCEYTIATFCPGSQPGEFTLGNIKSYGDKTSYLVRVVSTDYNQYAVVFFKLAEDNAEFFAITIYGRTKELASELKENFIRFSKSLGLPENHIVFPVPIDQCIDG
# notes: as for B12
# B23: S140.4-O10 with a free cystein residue at position 87 (designed binder)
# chain: QDSTSDLIPAPPLSKVPLQQNFQDNQFHGKWYVVGLAGNRILRDDQHPMNMYATIYELKEDKSYNVTSVISSHKKCEYTIATFVPGCQPGEFTLGNIKSYGDKTSYLVRVVSTDYNQYAVVFFKLAEDNAEFFAITIYGRTKELASELKENFIRFSKSLGLPENHIVFPVPIDQCIDGSAWSHPQFEK
# notes: Not PEGylated; also called O10_S87C; S87C variant
# What was measured:
# [1] = molecular target: T1, human CTLA-4-Fc (Chimerigen) (human, UniProt P16410 36-161; P01857 99-330 = IgG part, limits assumed); assay: SPR, Fc fusion captured via anti-human IgG Fc
# T1 construct: extracellular domain;domain: Fc portion; Bought protein; also called hCTLA-4-Fc; huCTLA-4-Ig
# T1 sequence (P16410 other isoform, or with tags, fused parts or gaps mutant limits assumed): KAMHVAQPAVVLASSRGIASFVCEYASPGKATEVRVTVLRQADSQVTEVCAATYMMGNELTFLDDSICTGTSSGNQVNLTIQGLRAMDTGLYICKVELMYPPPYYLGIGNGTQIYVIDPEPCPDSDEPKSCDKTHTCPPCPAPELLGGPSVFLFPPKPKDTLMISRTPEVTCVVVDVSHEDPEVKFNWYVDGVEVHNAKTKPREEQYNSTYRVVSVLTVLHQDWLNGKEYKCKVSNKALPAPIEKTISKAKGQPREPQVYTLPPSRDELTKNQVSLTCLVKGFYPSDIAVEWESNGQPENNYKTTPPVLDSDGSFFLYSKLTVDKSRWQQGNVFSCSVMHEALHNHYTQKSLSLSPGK
# mCTLA-4-Fc (R&D Systems) = mCTLA-4-Fc (R&D Systems) (mouse, UniProt P09793 36-162); assay: SPR, Fc fusion captured via anti-human IgG Fc
# mCTLA-4-Fc (R&D Systems), sequence (P09793 whole entry, the tested form may be a part): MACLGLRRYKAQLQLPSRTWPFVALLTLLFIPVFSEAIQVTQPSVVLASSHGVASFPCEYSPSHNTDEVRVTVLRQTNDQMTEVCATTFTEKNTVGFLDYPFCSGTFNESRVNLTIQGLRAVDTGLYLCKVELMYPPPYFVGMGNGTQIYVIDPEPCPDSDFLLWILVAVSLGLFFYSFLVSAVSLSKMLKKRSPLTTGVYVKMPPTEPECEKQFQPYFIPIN
# [2] = molecular target: T1, human CTLA-4-Fc (Chimerigen); assay: SPR-Affinity of the monomer towards hCTLA-4-Fc
binder,measurement,setting,value
B1,Kd,[1],47.1 nM
same,koff,[1],0.00033 s⁻¹
same,kon,[1],7030 M⁻¹ s⁻¹
same,Kd,mCTLA-4-Fc (R&D Systems),198 nM
same,koff,mCTLA-4-Fc (R&D Systems),0.00089 s⁻¹
same,kon,mCTLA-4-Fc (R&D Systems),4500 M⁻¹ s⁻¹
B2,Kd,[1],22 nM
same,Kd,mCTLA-4-Fc (R&D Systems),135 nM
B3,Kd,[1],29 nM
same,Kd,mCTLA-4-Fc (R&D Systems),300 nM
B4,Kd,mCTLA-4-Fc (R&D Systems),19 nM
B5,Kd,[1],29 nM
same,Kd,mCTLA-4-Fc (R&D Systems),42 nM
B6,Kd,[1],18 nM
same,Kd,mCTLA-4-Fc (R&D Systems),65 nM
B7,Kd,[1],26 nM
B8,Kd,[1],43 nM
same,Kd,mCTLA-4-Fc (R&D Systems),110 nM
B9,Kd,[1],28 nM
same,Kd,mCTLA-4-Fc (R&D Systems),275 nM
B10,Kd,[1],20 nM
same,Kd,mCTLA-4-Fc (R&D Systems),47 nM
B11,Kd,[1],20 nM
same,koff,[1],0.00033 s⁻¹
same,kon,[1],16000 M⁻¹ s⁻¹
same,Kd,mCTLA-4-Fc (R&D Systems),6800 nM
same,koff,mCTLA-4-Fc (R&D Systems),0.098 s⁻¹
same,kon,mCTLA-4-Fc (R&D Systems),14500 M⁻¹ s⁻¹
B12,Kd,[2],6 nM
B13,Kd,[2],15 nM
B14,Kd,[2],15 nM
B15,Kd,[2],10 nM
B16,Kd,[2],13 nM
B17,Kd,[2],4 nM
B18,Kd,[2],32 nM
B19,Kd,[2],9 nM
B20,Kd,[2],24 nM
B21,Kd,[2],13 nM
B22,Kd,[2],15 nM
B23,Kd,[2],6 nM
